Assay results as given in patent publication US20230312725A1 (JIANGSU HENGRUI PHARMACEUTICALS, published 2023).

Target: human Claudin18.2 (human)
Assay: cell-based or functional assay

Binder	ADCC effect, IC50 (ng/ml), NUGC4 cells with high Claudin18.2 expression	ADCC effect, IC50 (ng/ml), NUGC4 cells with low Claudin18.2 expression	ADCC effect, IC50 (ng/ml), NUGC4 cells with moderate Claudin18.2 expression
h1901-11 (antibody, human IgG1, kappa, V domains shown) VH: EVQLVESGGGLVQPGGSLRLSCAASGFTFSDYGIHWVRQAPGKGLEWIAYISRGSSTIYYADTVKGRFTISRDNAKNSLYLQMTSLRAEDTAVYYCARGGYDTRNAMDYWGQGTTVTVSS VL: DIVMTQSPDSLAVSLGERATISCKSSQSLLNSGNQKNYLAWYQQKPGQPPKLLIYGASTRASGVPDRFSGSGSGTDFTLTISSLQAEDVAIYHCQNDLYYPLTFGQGTKLEIKR	26.2 ng/mL	22.4 ng/mL	15.3 ng/mL
IMAB-362 (antibody, human IgG1, kappa, V domains shown) VH: QVQLQQPGAELVRPGASVKLSCKASGYTFTSYWINWVKQRPGQGLEWIGNIYPSDSYTNYNQKFKDKATLTVDKSSSTAYMQLSSPTSEDSAVYYCTRSWRGNSFDYWGQGTTLTVSS VL: DIVMTQSPSSLTVTAGEKVTMSCKSSQSLLNSGNQKNYLTWYQQKPGQPPKLLIYWASTRESGVPDRFTGSGSGTDFTLTISSVQAEDLAVYYCQNDYSYPFTFGSGTKLEIKR	133 ng/mL	183 ng/mL	210 ng/mL
